Results as given in paper PMC11649927.

What was measured:
Assay in all cases: cryo-EM structure; single-particle cryo-EM of S trimers in situ on PFA-fixed, concentrated virions; C3 symmetry for the 3-closed-RBD maps, focused classification for 1-open-RBD trimers
[1] = target: SARS-CoV-2 spike (S) protein of the B.1 variant (B.1.238), on virions (SARS-CoV-2)
[2] = target: SARS-CoV-2 spike (S) protein of the Alpha variant (B.1.1.7), on virions (SARS-CoV-2)
[3] = target: SARS-CoV-2 spike (S) protein of the Mu variant (B.1.621), on virions (SARS-CoV-2)
[4] = target: SARS-CoV-2 spike (S) protein of the Gamma variant (P.1), on virions (SARS-CoV-2)
[5] = target: SARS-CoV-2 spike (S) protein of the Delta variant (B.1.617.2), on virions (SARS-CoV-2)

SARS-CoV-2 spike (S) protein of the B.1 variant (B.1.238), on virions (natural protein)
stoichiometry N [1]: 3

SARS-CoV-2 spike (S) protein of the Alpha variant (B.1.1.7), on virions (natural protein)
stoichiometry N [2]: 3

SARS-CoV-2 spike (S) protein of the Mu variant (B.1.621), on virions (natural protein)
stoichiometry N [3]: 3

SARS-CoV-2 spike (S) protein of the Gamma variant (P.1), on virions (natural protein)
stoichiometry N [4]: 3

SARS-CoV-2 spike (S) protein of the Delta variant (B.1.617.2), on virions (natural protein)
stoichiometry N [5]: 3
